One test deals with IGF1R (human, UniProt P08069). Nature of the test: SPR. (Surface plasmon resonance follows binding to a sensor surface in real time, without labels.)
Another test deals with EGFR (human, UniProt P00533). Nature of the test: SPR.

Numbering of substitutions follows the chain as printed.

IGF1R, sequence (P08069 31-932): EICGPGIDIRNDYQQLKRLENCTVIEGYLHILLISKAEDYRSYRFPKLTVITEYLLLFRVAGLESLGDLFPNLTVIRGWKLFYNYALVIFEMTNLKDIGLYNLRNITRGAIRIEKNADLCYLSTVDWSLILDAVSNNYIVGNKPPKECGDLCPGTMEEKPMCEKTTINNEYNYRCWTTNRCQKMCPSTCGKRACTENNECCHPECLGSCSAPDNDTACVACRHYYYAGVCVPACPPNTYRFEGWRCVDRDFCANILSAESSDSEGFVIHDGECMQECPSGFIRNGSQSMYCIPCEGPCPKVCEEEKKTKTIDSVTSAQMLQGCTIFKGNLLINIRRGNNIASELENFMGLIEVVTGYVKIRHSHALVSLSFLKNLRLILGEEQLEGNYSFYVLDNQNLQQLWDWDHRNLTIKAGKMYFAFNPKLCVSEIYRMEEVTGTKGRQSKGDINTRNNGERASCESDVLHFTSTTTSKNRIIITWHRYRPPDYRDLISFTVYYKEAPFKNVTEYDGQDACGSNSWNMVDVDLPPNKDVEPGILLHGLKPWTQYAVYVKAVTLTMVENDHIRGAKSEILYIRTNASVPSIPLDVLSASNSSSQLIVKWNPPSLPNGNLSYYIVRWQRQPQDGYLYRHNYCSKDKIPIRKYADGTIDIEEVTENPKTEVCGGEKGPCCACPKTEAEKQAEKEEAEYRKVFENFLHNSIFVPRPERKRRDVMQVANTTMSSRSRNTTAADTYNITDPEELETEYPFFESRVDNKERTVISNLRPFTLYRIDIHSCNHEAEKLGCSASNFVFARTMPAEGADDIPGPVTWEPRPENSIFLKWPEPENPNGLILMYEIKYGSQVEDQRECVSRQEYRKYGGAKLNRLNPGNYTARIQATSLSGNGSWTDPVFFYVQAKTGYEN

B1: IGF1R3_6_119 (designed binder)
chain: QVKLECSGGGLVQAGGSLRLSCVASEYPSNFYAMSWFRQAPGKEREFVAGVSRDGLTTLYADSVKGRFTMSRDNAKNTVDLQMNSVKAEDTAVYYCAIVITGVWNKVDVNSRSYHYWCQGTQVTVSS
The term Kd denotes the free concentration of one partner at which half of the binding sites on the other are occupied at equilibrium, for simple one-to-one binding. High values mean a looser complex, low ones a tighter complex. For the molecule B1, the dissociation constant (Kd) with IGF1R is 1.4 nM.

B2: IGF1R3_4_25 (antibody, V domains shown)
VH: B1 chain with L4C, C6E, A24C, C118G
As for B2, binding with IGF1R was put at a Kd of 2.3 nM.

B3: IGF1R3_24_86 (antibody, V domains shown)
VH: B1 chain with C6E, V23C, T78C, C118G
As to B3, binding with IGF1R was characterised by a dissociation constant (Kd) of 5.3 nM.

B4: IGF1R3_22_88 (antibody, V domains shown)
VH: B1 chain with C6E, S21C, D80C, C118G
Take B4: the dissociation constant Kd in the test with IGF1R was found to be 0.8 nM.

B5: IGF1R3 (antibody, V domains shown)
VH: B1 chain with C6E, C118G
As for B5, the dissociation constant (Kd) with IGF1R was determined as 0.9 nM.

B6: IGF1R4_22_88 (antibody, V domains shown)
VH: QVKLEESGGGLVQAGGSLRLCCEVSGGTVSPTAMGWFRQAPGKEREFVGHITWSRGTTRVASSVKDRFTISRDSAKNTVCLQMNSLKSEDTAVYYCAASTFLRILPEESAYTYWGQGTQVTVSS
Regarding B6, the Kd in the test with IGF1R worked out at 0.5 nM.

B7: IGF1R4 (antibody, V domains shown)
VH: B6 VH with C21S, C80Y
In the test with IGF1R, B7 came in with a Kd of 0.3 nM.

B8: IGF1R4_24_86 (antibody, V domains shown)
VH: B6 VH with C21S, E23C, T78C, C80Y
As to B8, the affinity in the test with IGF1R, expressed as Kd, was 1.1 nM.

B9: IGF1R4_4_25 (antibody, V domains shown)
VH: B6 VH with L4C, C21S, V24C, C80Y
As to B9, the Kd with IGF1R was 0.5 nM.

B10: IGF1R4_6_119 (designed binder)
chain: B6 VH with E6C, C21S, C80Y, G115C
Regarding B10, in the test with IGF1R, binding was characterised by a dissociation constant (Kd) of 0.3 nM.

B11: IGF1R5_4_25 (antibody, V domains shown)
VH: QVKCEESGGGLVQAGGSLRLSCACSGRTIDNYAMAWSRQAPGKDREFVATIDWGDGGARYANSVKGRFTISRDNAKGTMYLQMNNLEPEDTAVYSCAMARQSRVNLDVARYDYWGQGTQVTVSS
Molecule B11 yielded a Kd with IGF1R of 0.8 nM.

B12: IGF1R5_22_88 (antibody, V domains shown)
VH: B11 VH with C4L, S21C, C24A, Y80C
B12 had a dissociation constant Kd in the test with IGF1R of 1.4 nM.

B13: IGF1R5 (antibody, V domains shown)
VH: B11 VH with C4L, C24A
In the test with IGF1R, B13 returned a Kd of 1.1 nM.

B14: EG2 (antibody, V domains shown)
VH: QVQLVESGGGLVQAGDSLRVSCAASGRDFSDYVMGWFRQAPGKEREFVAAISRNGLTTRYADSVKGRFTISRDNDKNMVYLQMNSLKPEDTAVYYCAVNSAGTYVSPRSREYDYWGQGTQVTVSS
In the test with EGFR, B14 came in with a Kd of 14.6 nM.

B15: EG2_22_88 (antibody, V domains shown)
VH: B14 VH with S21C, Y80C
In turn, B15 had a Kd with EGFR of 47.2 nM.

B16: EG2_24_86 (antibody, V domains shown)
VH: B14 VH with A23C, M78C
With B16, in the test with EGFR, binding was put at a Kd of 62.5 nM.

B17: EG2_6_119 (designed binder)
chain: B14 VH with E6C, G116C
The molecule B17 came in with a dissociation constant Kd with EGFR of 25.7 nM.

B18: EG2_4_25 (antibody, V domains shown)
VH: B14 VH with L4C, A24C
For the molecule B18, binding in the test with EGFR was characterised by a dissociation constant (Kd) of 10.6 nM.

(Values after patent US20260365739 (published 2026).)
